Assay results: PMC12663309 (2025)

Biological target: human NEK7 recombinant protein (HY-P75935, MCE) (human, UniProt Q8TDX7 1-302, RED-NHS dye label (in the MST only))
Test: MST

Chain of human NEK7 recombinant protein (HY-P75935, MCE) (Q8TDX7 whole entry, one chain of several): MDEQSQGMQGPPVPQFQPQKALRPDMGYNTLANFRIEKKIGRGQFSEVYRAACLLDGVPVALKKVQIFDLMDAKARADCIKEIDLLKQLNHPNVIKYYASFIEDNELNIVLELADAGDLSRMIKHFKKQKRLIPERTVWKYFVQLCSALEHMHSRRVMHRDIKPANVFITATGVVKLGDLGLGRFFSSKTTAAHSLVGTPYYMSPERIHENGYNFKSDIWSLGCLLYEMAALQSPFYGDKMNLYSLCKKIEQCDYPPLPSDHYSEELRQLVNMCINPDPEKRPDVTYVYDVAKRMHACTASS

- Kd: 19.5 µM
B1: human SDHB recombinant protein (Ag29868, Proteintech) (natural protein)
chain: AQTAAATAPRIKKFAIYRWDPDKAGDKPHMQTYEVDLNKCGPMVLDALIKIKNEVDSTLTFRRSCREGICGSCAMNINGGNTLACTRRIDTNLNKVSKIYPLPHMYVIKDLVPDLSNFYAQYKSIEPYLKKKDESQEGKQQYLQSIEEREKLDGLYECILCACCSTSCPSYWWNGDKYLGPAVLMQAYRWMIDSRDDFTEERLAKLQDPFSLYRCHTIMNCTRTCPKGLNPGKAIAEIKKMMATYKEKKASV
